# Assay results as given in patent publication US20160228502A1 (UNIVERSITY OF MARYLAND BALTIMORE, published 2016).
# Where no end group is shown, it is not given here.
# B1: sarco(endo)plasmic reticulum Ca^2+-ATPase 1 (SERCA1) (enzyme)
# chain: MEAAHSKSTEECLAYFGVSETTGLTPDQVKRHLEKYGHNELPAEEGKSLWELVIEQFEDLLVRILLLAACISFVLAWFEEGEETITAFVEPFVILLILIANAIVGVWQERNAENAIEALKEYEPEMGKVYRADRKSVQRIKARDIVPGDIVEVAVGDKVPADIRILSIKSTTLRVDQSILTGESVSVIKHTEPVPDPRAVNQDKKNMLFSGTNIAAGKALGIVATTGVSTEIGKIRDQMAATEQDKTPLQQKLDEFGEQLSKVISLICVAVWLINIGHFNDPVHGGSWIRGAIYYFKIAVALAVAAIPEGLPAVITTCLALGTRRMAKKNAIVRSLPSVETLGCTSVICSDKTGTLTTNQMSVCKMFIIDKVDGDFCSLNEFSITGSTYAPEGEVLKNDKPIRSGQFDGLVELATICALCNDSSLDFNETKGVYEKVGEATETALTTLVEKMNVFNTEVRNLSKVERANACNSVIRQLMKKEFTLEFSRDRKSMSVYCSPAKSSRAAVGNKMFVKGAPEGVIDRCNYVRVGTTRVPMTGPVKEKILSVIKEWGTGRDTLRCLALATRDTPPKREEMVLDDSSRFMEYETDLTFVGVVGMLDPPRKEVMGSIQLCRDAGIRVIMITGDNKGTAIAICRRIGIFGENEEVADRAYTGREFDDLPLAEQREACRRACCFARVEPSHKSKIVEYLQSYDEITAMTGDGVNDAPALKKAEIGIAMGSGTAVAKTASEMVLADDNFSTIVAAVEEGRAIYNNMKQFIRYLISSNVGEVVCIFLTAALGLPEALIPVQLLWVNLVTDGLPATALGFNPPDLDIMDRPPRSPKEPLISGWLFFRYMAIGGYVGAATVGAAAWWFMYAEDGPGVTYHQLTHFMQCTEDHPHFEGLDCEIFEAPEPMTMALSVLVTIEMCNALNSLSENQSLMRMPPWVNIWLLGSICLSMSLHFLILYVDPLPMIFKLKALDLTQWLMVLKISLPVIGLDEILKFIARNYLEDPEDERRK
# notes: One entry covers native rabbit SERCA1 (SR vesicles) and untagged recombinant rabbit SERCA1 (COS7/HEK293 extracts and microsomes); The assay field of each row says which source was used; also called SERCA1-pcDNA3.1
# Assays:
# [1] = biological target: B1; assay: cell-based or functional assay
# [2] = biological target: B1; assay: coIP with antibodies to JPH1 from rabbit SR vesicles
# Method: CoIP experiments were performed as described in (60), with preparations of SR vesicles isolated by the method of Eletr and Inesi (61, 62) from rabbit skeletal muscle from the back and hind limb (Pel-Freez, Rogers, Ark.), or from crude membrane extracts of COS7 cells prepared as described (59, 63). For the latter, COS7 cells were harvested in PBS at 48 h following transfection, collected by centrifugation, frozen in liquid N₂ and stored at −80° C. until needed. Briefly, pellets were homogenized with 30 strokes of a glass Dounce homogenizer in resuspension buffer (0.25 M sucrose, 10 mM Tris-HCl, pH 7.5, 20 mM CaCl₂, 3 mM 2-mercaptoethanol, 150 mM KCl), and solubilized with an equal volume of lysis buffer (40 mM HEPES-NaOH, pH 7.5, 300 mM NaCl, 2 mM EDTA, 1% Tween 20). SR vesicles were prepared for coIP by the same methods for resuspension and solubilization. The muscle and cell extracts were pre-cleared with 50 μL uncoated Dynabeads. The pre-cleared extracts were mixed with antibody-coated Dynabeads (5 ug antibody/50 uL beads) and incubated at 4° C. for 4 h. […] Proteins in the samples were separated by SDS-PAGE and analyzed via immunoblot as described (64).
# The interaction between SERCA1 and sAnk1 was first analyzed by co-immunoprecipitation (coIP), performed with SR vesicles prepared from rabbit skeletal muscle (see Methods). […]
# [3] = biological target: Maltose Binding Protein (MBP) alone (UniProt P0AEX9 27-392 = MBP); assay: blot overlay on rabbit SR vesicle proteins
# Method: A FLAG empty vector was used as controls. […] 7B. Amylose resin bound to bacterially expressed sAnk1₂₉₋₁₅₅-MBP fusion protein was incubated with COS7 extracts transfected to express SERCA1. MBP protein alone was used as a control. […] Ponceau staining was used as a loading control (top panel). 7C. SR vesicle preparations were used for blot overlay assays. Blots were first overlaid with sAnk1₂₉₋₁₅₅-MBP or MBP protein alone, followed by incubation with antibodies to MBP. […] Ponceau staining was used as a loading control (right panel).
# The blot overlay assay was performed as described (50, 69) with minor modifications. […] The generation and purification of these fusion proteins were as described (51). A separate section of the membrane was reserved to identify SERCA1. Blots were washed extensively with overlay buffer and once with TBS, pH 7.4, plus 0.5% Tween-20 (TBST). The blots were blocked in TBST+4% non-fat dry milk for 4 h at 25° C. and probed with antibodies to MBP (overlay portion) and SERCA1 (non-overlay portion). Immunoblots were completed as described above.
binder,measurement,setting,value
"{FLAG tag}-MERSTRELCLNFTVVLITVILIWLLVRSYQY (other, rabbit, UniProt P42532 1-31, looked up, not shown: small tags and cut ends, not fully specified) [N-terminal FLAG-tagged sarcolipin (NF-SLN)]",ΔKCa2+ relative to SERCA1 Alone,[1],-0.37 pCa^2+ units
"junctophilin-1 (JPH1), native, rabbit skeletal muscle SR vesicles (other, UniProt Q9GKY8 1-662, looked up) MTGGRFDFDDGGTYCGGWEEGKAHGHGICTGPKGQGEYSGSWSHGFEVVGGYTWPSGNTYQGYWAQGKRHGLGVETKGKWMYRGEWSHGFKGRYGVRQSLCTPARYEGTWSNGLQDGYGVETYGDGGTYQGQWAGGMRHGYGVRQSVPYGMATVIRSPLRTSLASLRSEQSNGSVLHDAAAAADTPTGTRGGFVLNFHADAELAGKKKGGLFRRGSLLGSMKLRKSESKSSISSKRSSVRSDAAMSRISSSDANSTISFGDVDCDFCPVEDHVDATTTETYMGEWKNDKRNGFGISERSNGMKYEGEWANNKRHGYGCTVFPDGSKEEGKYKNNILVRGIRKQLIPIRNTKTREKVDRAIEGAQRAAAMARTKVEIANSRTAHARAKADAADQAALAARQECDIARAVARELSPDFYQPGPDYIKQRLQEGVDAKENPEEKVPAKPPTPKESPHFYRKGTTPPGSPEASPKYSRSPQPSPPKPAKKQNPSSGARLNQDKRGVAEEQVTAIVNKPLTSKAPTKEVGAAVSQSKYSGRHHVPNPSNGELHSQYHGYYVKLHAPQHPPVDAEDDDRSSPSSSALVHKPSPNKWSPPKSVTKPVAKESKAEPKAKKSELAIPKNPASNDSCPSMEREANSGPNSVMIVLVMLLNIGLAILFVHFLT",binding result,[2],no binding
B1,binding result,[3],no binding (tested: 3 µg/mL)
